According to patent US20260167731A1 (DOMAIN THERAPEUTICS, published 2026):
Values joined by “and” are separate entries in the source; they are usually repeats but may differ in a detail not shown here. Equal entries are not always repeated.

Columns and labels:
[1] = biological target: T1, human CCR8 (human, UniProt P51685 1-355); assay: cell-based or functional assay
[2] = biological target: T1, human CCR8; assay: cell-based or functional assay; remark: listed apart in the source
[3] = biological target: T1, human CCR8; assay: cell-based or functional assay; remark: listed apart in the source
[4] = biological target: T1, human CCR8; assay: flow cytometry, inhibition of hCCL1-AF647 binding to hCCR8 CHO cells
Description: The hCCR8 transfected CHO cell line was dispatched at a density of 1·10⁵ per well in a 96-well plate. Cells were incubated for 30 min at 4° C. with or without anti-CCR8 mAb tested at 10 μg/mL then diluted at 1/3. Unbound antibodies were washed away with PBS (Gibco, Villebon-sur-Yvette, France) supplemented by 2% Fetal Bovine Serum (Invitrogen by Thermofisher Scientific, Illkirch-Graffenstaden, France) and 2 mM EDTA. […] After washing unbound ligands, CCL1 bound detection is quantified on a MacsQuant16 (Miltenyi, Gladbach, Germany) (R1 channel, 5 000 events per acquisition).
For IC₅₀ determination, a concentration response curve is performed using 8 concentrations of mAb. Curves are fitted and IC₅₀ of CCL1 binding blocking activity is calculated using the sigmoidal dose-response (variable slope) model on GraphPad Prism 9 (GraphPad Software, San Diego, CA, USA).

[5] = biological target: T1, human CCR8; assay: flow cytometry, hCCR8 transfected CHOK1 cells
Description: (§1) The same staining protocol was applied on human CCR8 transfected CHO cell line versus wild type CHO cell line, cutaneous T cell lymphoma HUT78 cell line and human activated T cell model.
(§2) Briefly, 1·10⁵ cells per well in a 96 well plate were incubated with a dilution of unconjugated anti-CCR8 mAb at 10 μg/mL then diluted at 1/3.33, 4 dilution points (during 30 min at 4° C.). In human activated T cells model, prior to mAb incubation, cells were first incubated with 200 nM of hCCL1 (R&D Systems, Minneapolis, MN, USA) or buffer PBS (Invitrogen by Thermofisher Scientific, Illkirch-Graffenstaden, France) supplemented by 2% Fetal Bovine Serum (Invitrogen by Thermofisher Scientific, Illkirch-Graffenstaden, France) and 2 mM EDTA (Invitrogen by Thermofisher Scientific, Illkirch-Graffenstaden, France) during 1 hour at 4° C. To determine EC50 value, 8 concentrations of anti-CCR8 mAb were tested. Unbound antibodies were washed away with PBS (Invitrogen by Thermofisher Scientific, Illkirch-Graffenstaden, France) supplemented by 2% Fetal Bovine Serum (Invitrogen by Thermofisher Scientific, Illkirch-Graffenstaden, France) and 2 mM EDTA (Invitrogen by Thermofisher Scientific, Illkirch-Graffenstaden, France). Subsequently, cells are centrifuged (5 min at 400 g) and bound antibody is detected with F(ab′)₂-Goat anti-Mouse IgG (H+L) Cross-Adsorbed Secondary Antibody, Alexa Fluor 488 (dilution 1/500) (Invitrogen by Thermofisher Scientific, Illkirch-Graffenstaden, France) or with F(ab′)₂-Goat anti-Human IgG Fc Secondary Antibody, PE (Invitrogen by Thermofisher Scientific, Illkirch-Graffenstaden, France) (dilution 1/1000) at 4° C. for 30 min. Detection reagent is washed away and cells are centrifuged (5 min at 400 g) and resuspended in 30 μL PBS. Bound detection antibody is quantified on a MacsQuant16 (Miltenyi, Gladbach, Germany) (B1 or B2 channel, 5000 events per acquisition). During the experiment, the respective isotype mAb controls (mouse IgG1, mouse IgG2a, mouse IgG2b, mouse IgG3 or human IgG1) (Biolegend, Amsterdam, The Netherlands) are included to exclude any unspecific binding events.

[6] = biological target: pm4, modified CCR8 related peptide (human, sulfated tyrosines at Y15 and Y16); assay: ELISA on coated CCR8 peptide (500 ng/mL), OD [cont.]
Description: (§3) The specific binding properties of antibodies were evaluated by ELISA with coated CCR8 related peptides (500 ng/mL) in carbonate/bicarbonate buffer. Different peptides were used as described in Table 1 (see Example 1). Each anti-CCR8 mAb was tested at 1 μg/mL then diluted at 1/10. After an incubation at room temperature during 90 min, unbound mAbs were removed by washings. […] After washings, 3,3′,5,5′-tetramethylbenzidine (TMB) (Interchim, Montlugon, France) was added for 15 min. Then the optical density (OD) was determined by using a multiplate reader (Tecan, Lyon, France) and correlated with mAb reactivity on the panel of coated peptides.

[7] = biological target: pm8, modified CCR8 related peptide (human, sulfated tyrosines at Y15, Y16 and Y17); assay: as above
Description: as §3

[8] = biological target: pm2, modified CCR8 related peptide (human, sulfated tyrosine at Y16); assay: as above
Description: as §3

[9] = biological target: T2, pwt1, unmodified CCR8 related peptide (human, none (non-sulfated Y15, Y16, Y17)); assay: as above
T2 construct: First 34 amino acids of human CCR8, synthetic; also called unmodified peptide
Description: as §3

[10] = biological target: pm3, modified CCR8 related peptide (human, sulfated tyrosine at Y17); assay: as above
Description: as §3

[11] = biological target: pm6, modified CCR8 related peptide (human, sulfated tyrosines at Y16 and Y17); assay: as above
Description: as §3

[12] = biological target: pm5, modified CCR8 related peptide (human, sulfated tyrosines at Y15 and Y17); assay: as above
Description: as §3

[13] = biological target: pm1, modified CCR8 related peptide (human, sulfated tyrosine at Y15); assay: as above
Description: as §3

[14] = biological target: T1, human CCR8; assay: cell-based or functional assay; remark: listed apart in the source
[15] = biological target: T1, human CCR8; assay: cell-based or functional assay; remark: listed apart in the source
[16] = biological target: T3, hCCR8 SNAP-tag (human, UniProt P51685 1-355, SNAP-tag labelled with Lumi4-Terbium); assay: cell-based or functional assay
[17] = biological target: T1, human CCR8; assay: flow cytometry, HUT78 cells (endogenous CCR8)
Description: as §1, §2
EC50 values were determined via nonlinear fit “log(agonist)vs.response−Variable slope (four parameters)” function of Graphpad prism. EC50 values were not constantly determined in the same experiments.

[18] = biological target: T3, hCCR8 SNAP-tag; assay: HTRF Tag-lite, inhibition of hCCL1-AF647 binding to SNAP-tag hCCR8 on HEK-293
Description: The inhibition of CCL1 binding to hCCR8 was evaluated with the Tag-Lite® technology from Cisbio (Revvity). Human CCR8 is engineered with a SNAP-tag at the N-terminus of the GPCR. hCCR8 SNAP-tag is transiently transfected on HEK-293 cell line using FuGene® (Promega, Madison, WI, USA). 48 hours after transfection, cells are labeled with the substrate Lumi4-Terbium® (Cisbio, Codolet, France) which covalently reacts with the SNAP-tag, for 1 h at 37° C. […] The Kd is previously obtained in a saturation binding assay on the same cells. […] The plate is next incubated at 21° C. for 2 h. Detection of HTRF signal is performed on the multiplate reader EnVision (PerkinElmer, Waltham, MA, USA). The HTRF (665/620) ratio is calculated by EnVision software, the data exported are considered as the total binding. The specific binding is calculated then by subtracting the non-specific signal from the total binding. The Ki and IC₅₀are calculated using the “One site—Fit Ki” and “One site—FitlogIC50” from GraphPad Prism 9 (Graphpad Software, San Diego, CA, USA), respectively.

Sequence of pm8, modified CCR8 related peptide (human, sulfated tyrosines at Y15, Y16 and Y17) (peptide, as listed by the source): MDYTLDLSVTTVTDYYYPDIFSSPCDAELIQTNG
Sequence of pm3, modified CCR8 related peptide (human, sulfated tyrosine at Y17) (peptide, as listed by the source): as above
Sequence of pm6, modified CCR8 related peptide (human, sulfated tyrosines at Y16 and Y17) (peptide, as listed by the source): as above
Sequence of pm4, modified CCR8 related peptide (human, sulfated tyrosines at Y15 and Y16) (peptide, as listed by the source): as above
T2 sequence (peptide, as listed by the source): as above
Sequence of pm2, modified CCR8 related peptide (human, sulfated tyrosine at Y16) (peptide, as listed by the source): as above
Sequence of pm5, modified CCR8 related peptide (human, sulfated tyrosines at Y15 and Y17) (peptide, as listed by the source): as above
Sequence of pm1, modified CCR8 related peptide (human, sulfated tyrosine at Y15) (peptide, as listed by the source): as above

Row | Top plateau values in presence of 5 µg/mL mAb (% of hCCL1 (100 nM)), protocol #3 [1] | hCCL1 (100 nM) residual response in %, Protocol #2, mAb 0.08 µg/mL (0.53 nM) [2] | hCCL1 (100 nM) residual response in %, Protocol #2, mAb 0.4 µg/mL (2.67 nM) [2] | hCCL1 (100 nM) residual response in %, Protocol #2, mAb 10 µg/mL (66.7 nM) [2] | hCCL1 (100 nM) residual response in %, Protocol #3, mAb 0.05 µg/mL (0.33 nM) [2] | hCCL1 (100 nM) residual response in %, Protocol #3, mAb 0.5 µg/mL (3.33 nM) [2] | hCCL1 (100 nM) residual response in %, Protocol #3, mAb 5 µg/mL (33.3 nM) [2] | IC50, CCL1 induced hCCR8 Gi2 signaling (BRET, HEK-293) [3] | IC50 [4] | % positive cells [5] | MFI fold change to isotype ctrl [5] | binding result [6] | binding result [7] | binding result [8] | binding result [9] | binding result [10] | binding result [11] | binding result [12] | binding result [13] | Binder | also measured
1 | 855% | 104% | 46% | 28% | 80% | 57% | 45% | 0.046 µg/mL and 0.306 nM | 0.6 µg/mL and 4.01 nM | 56.2% | 4.78 fold | binds | binds | binds | binds | binds | binds | binds | binds | anti-CCR8 mAb 2-4 (antibody, V domains shown) VH: EVQLQQSGPELVKPGASVKISCKTSGYTFTEYTIHWVKQSHGESLEWVGGINPNNGNTRYDQKFKGKATLTIDKSSSPAYMELRSLTSEDSAVYYCARVARSSGSGPYAMDYWGQGTSVTVSS VL: DVVMTQTPLSLPVSLGDQASISCRCTQSLLHTNGDTYLHWYLQKPGQSPKLLIYKVSNRFSGVPDRFSGSGSGTDFTLKISRVEAEDLGVYFCSQSTHVPYTFGGGTKLEIK | –
2 | 292% | 97% | 96% | 84% | 96% | 81% | 73% | 0.092 µg/mL and 0.616 nM | 6.41 µg/mL and 43 nM | 34.7% | 2.34 fold | – | – | – | – | – | – | – | – | anti-CCR8 mAb 2-11 (antibody, V domains shown) VH: EVQLQQSGPELVKPGASVKISCKASVYSFTGSYMHWVKQSHVKSLEWIGRINPYNGATSYNQNFKDKASLTVDKSSSTAYMELHSLTSEDSAVYYCATTLLRLLDYWGQGTTLTVSS VL: DIVMTQAAFSNPVTLGTSASISCRSSKSLLHSNGITYLYWYLQKPGQSPQLLIYQMSNLASGVPDRFSSSGSGTDFTLRISRVEAEDVGVYYCAQNLELPWTFGGGTKLEIK | IC50, CCL1 induced hCCR8 Gi2 signaling (BRET) at pH 6.5 [14]: 0.162 µg/ml and 1.08 nM; IC50, CCL1 induced hCCR8 Gi2 signaling (BRET) at pH 7.4 [14]: 0.152 µg/ml and 1.01 nM
3 | – | 67% | 55% | 32% | 86% | 60% | 42% | 0.022 µg/mL and 0.147 nM | – | – | – | binds | binds | binds | binds | binds | binds | binds | binds | humanized anti-CCR8 mAb 2-14 (antibody, human IgG1, kappa, V domains shown, Humanized, human IgG1 / kappa) VH: QVQLVQSGPEVVKPGASVKVSCKTSGYTFTEYTIHWVRQAPGQSLEWVGGINPNNGNTRYDQKFQGRVTITRDKSASTAYMELRSLTSEDTAVYYCARVARSSGSGPYAMDYWGQGTTVTVSS VL: DVVMTQSPLSLPVTLGDQASISCRCSQSLLHTNGDTYLHWYLQRPGQSPRLLIYKVSNRFSGVPDRFSGSGSGTDFTLKISRVEAEDVGVYFCSQSTHVPYTFGGGTKVEIKR | ADCC % Max lysis, HUT78 targets, NK cells Donor 3 [15]: 15%; ADCC % Max lysis, HUT78 targets, NK cells Donor 4 [15]: 16%; ADCC EC50, HUT78 targets, NK cells Donor 3 [15]: 505 pM; ADCC EC50, HUT78 targets, NK cells Donor 4 [15]: 573 pM; % of internalization at 1 µg/ml (CCL1 at 300 nM = 100%), HTRF [16]: 44%; % of internalization at 10 µg/ml (CCL1 at 300 nM = 100%), HTRF [16]: 29%; % of labelled cells [17]: 96%; IC50 [18]: 0.04 µg/mL; Ki [18]: 0.02 µg/mL
